Results reported in PMC13132549.
Where “and” joins values, the source holds several entries; their conditions need not be identical. Equal values may be shown once.

Tests used:
[1] = target: RXRγ (NR2B3) ligand-binding domain (LBD) (human) (UniProt P48443); assay: ITC; 500 µM Nur77 LBD titrated into 50 µM RXRγ LBD preincubated with vehicle (DMSO) or RXR ligand; 5 °C; 0.25% DMSO; homodimer competition model (SEDPHAT) for the data without ligand
[2] = target: RXRα LBD (Homo sapiens) (UniProt P19793); assay: ITC; details: cited from earlier work
[3] = target: RXRα (NR2B1) ligand-binding domain (LBD); assay: SEC-MALS; 100 µL of each protein at 5 mg/mL (180 µM) injected; 40 mM potassium phosphate pH 7.4, 200 mM KCl; 25 °C
[4] = target: RXRγ (NR2B3) ligand-binding domain (LBD) (human) (UniProt P48443); assay: as above

Sequence of UniProt P19793 (P19793 227-458): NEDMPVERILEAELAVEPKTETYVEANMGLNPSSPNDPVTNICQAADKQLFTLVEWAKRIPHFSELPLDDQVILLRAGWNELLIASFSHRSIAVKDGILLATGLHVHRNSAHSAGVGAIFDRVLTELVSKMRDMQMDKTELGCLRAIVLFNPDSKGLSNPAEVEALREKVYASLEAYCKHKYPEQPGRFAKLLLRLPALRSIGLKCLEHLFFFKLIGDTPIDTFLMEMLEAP

With “Nur77 (NR4A1) ligand-binding domain (LBD) (from UniProt P22736 356-598) (domain or fragment)” the Kd [1] was 9 µM.

For Nurr1 LBD (from UniProt P43354), the Kd [2] is given as 4 µM.

For “RXRα (NR2B1) ligand-binding domain (LBD) (domain or fragment)”, the stoichiometry N [3] was 2 and 4.

For “RXRγ (NR2B3) ligand-binding domain (LBD) (from UniProt P48443 226-463) (domain or fragment)”, the stoichiometry N [4] was 2 and 4.
